Measurements published in patent US20220411483A1 (Chugai, published 2022).
Numbering of substitutions follows the chain as printed.

T1: FcγRIIb extracellular domain with C-terminal His tag (human, UniProt P31994 43-217)
T1 construct: extracellular domain; also called FcgRIIb
T1 sequence (looked up): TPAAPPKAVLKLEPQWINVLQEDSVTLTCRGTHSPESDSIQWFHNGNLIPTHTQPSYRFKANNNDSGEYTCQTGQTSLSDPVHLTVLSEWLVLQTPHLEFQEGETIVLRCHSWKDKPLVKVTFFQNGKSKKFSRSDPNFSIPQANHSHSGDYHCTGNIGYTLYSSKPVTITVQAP

T2: FcγRIIa R type extracellular domain, His tag (human, UniProt P12318 34-217)
T2 construct: extracellular domain; also called FcgRIIaR
T2 sequence (looked up): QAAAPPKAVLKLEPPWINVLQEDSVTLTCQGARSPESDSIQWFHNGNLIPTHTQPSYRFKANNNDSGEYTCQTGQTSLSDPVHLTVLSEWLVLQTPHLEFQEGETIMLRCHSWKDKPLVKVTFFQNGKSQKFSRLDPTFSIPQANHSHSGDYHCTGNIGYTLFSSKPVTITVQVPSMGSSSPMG

T3: FcγRIIb extracellular domain, His tag (human, UniProt P31994 43-217)
T3 construct: extracellular domain; also called FcgRIIb
T3 sequence (looked up): T1 sequence (looked up)

T4: FcγRIIa R type extracellular domain with C-terminal His tag (human, UniProt P12318 34-217)
T4 construct: extracellular domain; also called FcgRIIaR; not shown: His tag at the C terminus
T4 sequence (looked up): T2 sequence (looked up)

T5: FcγRIIb extracellular domain with C-terminal His tag (human, UniProt P31994 43-217)
T5 construct: extracellular domain; also called FcgRIIb; not shown: His tag at the C terminus
T5 sequence (looked up): T1 sequence (looked up)

B1: IL6R-BP151/IL6R-L (antibody, human IgG1, kappa, name in EU numbering)
heavy: QVQLQESGPGLVKPSETLSLTCAVSGHSISHDHAWSWVRQPPGEGLEWIGFISYSGITNYNPSLQGRVTISRDNSKNTLYLQMNSLRAEDTAVYYCARSLARTTAMDYWGEGTLVTVSSASTKGPSVFPLAPSSKSTSGGTAALGCLVKDYFPEPVTVSWNSGALTSGVHTFPAVLQSSGLYSLSSVVTVPSSSLGTQTYICNVNHKPSNTKVDKKVEPKSCDKTHTCPPCPAPDYLGDDSVFLFPPKPKDTLMISRTPEVTCVVVDVSHEDPEVKFNWYVDGVEVHNAKTKPREEQYNSTYRVVSVLTVLHQDWLNGKEYKCKVSNAALPRPIEKTISKAKGQPREPQVYTLPPSRDELTKNQVSLTCLVKGFYPSDIAVEWESNGQPENNYKTTPPVLDSDGSFFLYSKLTVDKSRWQQGNVFSCSVMHEALHNHYTQESLSLSP
light: not shown
notes: IgG1; alterations on IL6R-B3, EU numbering
B2: IL6R-BP206/IL6R-L (antibody, human IgG1, kappa, name in EU numbering)
heavy: B1 heavy with Y236L, D239G, P273G, A328K
light: not shown
notes: as for B1
B3: IL6R-BP237/IL6R-L (antibody, human IgG1, kappa, name in EU numbering)
heavy: B1 heavy with S269Q, H270D, P273G, Y298D, R332K
light: not shown
notes: as for B1
B4: IL6R-BP130/IL6R-L (antibody, human IgG1, kappa, name in EU numbering)
heavy: B1 heavy with Y236L, D239G, V325M, A328K, R332K
light: not shown
notes: as for B1
B5: IL6R-BP228/IL6R-L (antibody, human IgG1, kappa, name in EU numbering)
heavy: B1 heavy with D235E, S269Q, H270D, P273G, A328D
light: not shown
notes: as for B1
B6: IL6R-BP239/IL6R-L (antibody, human IgG1, kappa, name in EU numbering)
heavy: B1 heavy with S269Q, H270D, P273G, Y298D
light: not shown
notes: as for B1
B7: IL6R-2B044/IL6R-L (antibody, human IgG1, kappa)
heavy: B1 heavy with D235E, Y236L, D239G, F243L, A328K, R332A
light: not shown
B8: IL6R-2B128/IL6R-L (antibody, human IgG1, kappa)
heavy: B1 heavy with D235E, Y236L, D239G, Y298D, A328K, R332A
light: not shown
B9: IL6R-2B118/IL6R-L (antibody, human IgG1, kappa)
heavy: B1 heavy with D235E, Y236L, D239G, Q297M, A328K, R332A
light: not shown
B10: IL6R-2B045/IL6R-L (antibody, human IgG1, kappa)
heavy: B1 heavy with D235E, Y236L, D239G, F243M, A328K, R332A
light: not shown
B11: IL6R-2B145/IL6R-L (antibody, human IgG1, kappa)
heavy: B1 heavy with D235E, Y236L, D239G, S300A, A328K, R332A
light: not shown
B12: IL6R-2B154/IL6R-L (antibody, human IgG1, kappa)
heavy: B1 heavy with D235E, Y236L, D239G, S300M, A328K, R332A
light: not shown
B13: IL6R-2B124/IL6R-L (antibody, human IgG1, kappa)
heavy: B1 heavy with D235E, Y236L, D239G, Q297V, A328K, R332A
light: not shown
B14: IL6R-2B129/IL6R-L (antibody, human IgG1, kappa)
heavy: B1 heavy with D235E, Y236L, D239G, Y298E, A328K, R332A
light: not shown
B15: IL6R-2B169/IL6R-L (antibody, human IgG1, kappa)
heavy: B1 heavy with D235E, Y236L, D239G, V325I, A328K, R332A
light: not shown
B16: IL6R-2B137/IL6R-L (antibody, human IgG1, kappa)
heavy: B1 heavy with D235E, Y236L, D239G, Y298N, A328K, R332A
light: not shown
B17: IL6R-2B132/IL6R-L (antibody, human IgG1, kappa)
heavy: B1 heavy with D235E, Y236L, D239G, Y298H, A328K, R332A
light: not shown
B18: IL6R-PD026/IL6R-L (antibody, human IgG1, kappa)
heavy: B1 heavy with D235E, Y236A, D239G, M254Y, A328K, R332A, N436Y, E441K
light: not shown
notes: human IgG1
B19: IL6R-F652/IL6R-L (antibody, human IgG1, kappa)
heavy: B1 heavy with D235E, Y236L, D239G, M254Y, A328K, R332A, N436Y, E441K
light: not shown
notes: human IgG1
B20: IL6R-PD035/IL6R-L (antibody, human IgG1, kappa)
heavy: B1 heavy with D235E, Y236N, D239G, M254Y, A328K, R332A, N436Y, E441K
light: not shown
notes: human IgG1
B21: IL6R-PD033/IL6R-L (antibody, human IgG1, kappa)
heavy: B1 heavy with D235E, Y236K, D239G, M254Y, A328K, R332A, N436Y, E441K
light: not shown
notes: human IgG1
B22: IL6R-PD031/IL6R-L (antibody, human IgG1, kappa)
heavy: B1 heavy with D235E, Y236H, D239G, M254Y, A328K, R332A, N436Y, E441K
light: not shown
notes: human IgG1

The binders below were run against T1, FcγRIIb extracellular domain with … (assay: SPR (Biacore), FcgR as analyte).

| Kd [nM] | Binder |
| --- | --- |
| 40 | B1 |
| 200 | B2 |
| 100 | B3 |
| 300 | B4 |
| 40 | B5 |
| 60 | B6 |

Each binder was assayed against T2, FcγRIIa R type extracellular domain, … (assay: SPR, bound amount per captured antibody).

| Relative FcgRIIaR-binding Activity | Binder |
| --- | --- |
| 55.7 % of IL6R-BF648/IL6R-L | B7 |
| 88.1 % of IL6R-BF648/IL6R-L | B8 |
| 93.4 % of IL6R-BF648/IL6R-L | B9 |
| 64.7 % of IL6R-BF648/IL6R-L | B10 |
| 45.1 % of IL6R-BF648/IL6R-L | B11 |
| 77.5 % of IL6R-BF648/IL6R-L | B12 |
| 65.2 % of IL6R-BF648/IL6R-L | B13 |
| 68.4 % of IL6R-BF648/IL6R-L | B14 |
| 90.8 % of IL6R-BF648/IL6R-L | B15 |
| 77.7 % of IL6R-BF648/IL6R-L | B16 |
| 66.9 % of IL6R-BF648/IL6R-L | B17 |

What follows are binders tested against T3, FcγRIIb extracellular domain, His tag (assay: SPR, bound amount per captured antibody).

| Relative FcgRIIb-binding Activity | Binder |
| --- | --- |
| 65.5 % of IL6R-BF648/IL6R-L | B7 |
| 102 % of IL6R-BF648/IL6R-L | B8 |
| 96.3 % of IL6R-BF648/IL6R-L | B9 |
| 81.1 % of IL6R-BF648/IL6R-L | B10 |
| 55.5 % of IL6R-BF648/IL6R-L | B11 |
| 79.4 % of IL6R-BF648/IL6R-L | B12 |
| 72.9 % of IL6R-BF648/IL6R-L | B13 |
| 93.3 % of IL6R-BF648/IL6R-L | B14 |
| 103 % of IL6R-BF648/IL6R-L | B15 |
| 98.3 % of IL6R-BF648/IL6R-L | B16 |
| 89.1 % of IL6R-BF648/IL6R-L | B17 |

The binders below were run against T4, FcγRIIa R type extracellular domain … (assay: SPR; amount bound divided by amount of IL6R-F652/IL6R-L bound, x100).

| Relative FcgRIIaR-binding Activity | Binder |
| --- | --- |
| 67.2 | B18 |
| 100 | B19 |
| 44.4 | B20 |
| 11.2 | B21 |
| 41.8 | B22 |

Each binder was assayed against T5, FcγRIIb extracellular domain with … in the same assay as above.

| Relative FcgRIIb-binding Activity | Binder |
| --- | --- |
| 37.2 | B18 |
| 100 | B19 |
| 38.3 | B20 |
| 6.2 | B21 |
| 27.6 | B22 |
